Results as given in patent US20140100172A1.
Each block holds one substance with its values, some of them ahead of it.

Key:
[1] = target: human chemokine receptor type 4 (CXCR4) (human) (UniProt P61073); test: radioligand competition binding; CMS5/CXCR4 cells
[2] = target: human chemokine receptor type 4 (CXCR4) (human) (UniProt P61073); test: radioligand competition binding; Jurkat cells
[3] = target: human chemokine receptor type 4 (CXCR4) (human) (UniProt P61073); test: radioligand competition binding; tracer 125I-SDF-1α
[4] = target: human chemokine receptor type 4 (CXCR4) (human) (UniProt P61073); test: radioligand competition binding; tracer 125I-SDF-1α; CMS5/CXCR4; site (1); parameters: unit not given here
[5] = target: human chemokine receptor type 4 (CXCR4) (human) (UniProt P61073); test: radioligand competition binding; tracer 125I-SDF-1α; CMS5/CXCR4; site (2); parameters: unit not given here
[6] = target: human chemokine receptor type 4 (CXCR4) (human) (UniProt P61073); test: radioligand competition binding; tracer 125I-CPCR4; CMS5/CXCR4; parameters: unit not given here
[7] = target: human chemokine receptor type 4 (CXCR4) (human) (UniProt P61073); test: radioligand competition binding; tracer 125I-CPCR4
[8] = target: human chemokine receptor type 4 (CXCR4) (human) (UniProt P61073); test: radioligand competition binding; tracer 125I-CPCR4; Jurkat; parameters: unit not given here
[9] = target: human chemokine receptor type 4 (CXCR4) (human) (UniProt P61073); test: radioligand competition binding; tracer 125I-CPCR4; Jurkat; site (2); parameters: unit not given here
[10] = target: human chemokine receptor type 4 (CXCR4) (human) (UniProt P61073); test: radioligand competition binding; tracer 125I-CPCR4; CMS5/CXCR4; site (2); parameters: unit not given here
[11] = target: human chemokine receptor type 4 (CXCR4) (human) (UniProt P61073); test: radioligand competition binding; tracer 125I-CPCR4; CMS5/CXCR4; site (1); parameters: unit not given here
[12] = target: human chemokine receptor type 4 (CXCR4) (human) (UniProt P61073); test: radioligand competition binding; tracer 125I-CPCR4; Jurkat; site (1); parameters: unit not given here
[13] = target: human chemokine receptor type 4 (CXCR4) (human) (UniProt P61073); test: competition with 125I-CPCR4 tracer on CXCR4-expressing cells

Chain of human chemokine receptor type 4 (CXCR4) (human) (P61073 whole entry): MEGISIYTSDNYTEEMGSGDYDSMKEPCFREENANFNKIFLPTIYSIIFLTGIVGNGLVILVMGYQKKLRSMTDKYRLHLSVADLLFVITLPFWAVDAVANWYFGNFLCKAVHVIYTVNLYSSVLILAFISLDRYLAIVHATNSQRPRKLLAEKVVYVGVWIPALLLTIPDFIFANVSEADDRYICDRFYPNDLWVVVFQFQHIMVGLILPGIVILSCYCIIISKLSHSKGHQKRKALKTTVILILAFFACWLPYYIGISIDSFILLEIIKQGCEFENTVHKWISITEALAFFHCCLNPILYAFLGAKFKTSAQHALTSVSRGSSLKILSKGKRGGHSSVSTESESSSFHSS

Substance: CPCR4, cyclo[D-Tyr-Arg-Arg-Nal-Gly]
IC50 [3]: 0.0055 µM
IC50 [4]: 0.01 ?
IC50 [5]: 6.9 ?
IC50 [6]: 6.8 ?
IC50 [7]: 0.0038 µM
IC50 [8]: 3.7 ?

Substance: cyc[D-Tyr-(Me)D-Orn(Me, FB)-Arg-Nal-Gly] (peptide)
IC50 [13]: 0.059 µM

Substance: cyc[D-Tyr-Orn(Bz, FB)-Arg-Nal-Gly] (peptide)
IC50 [13]: 0.1 µM

Substance: cyc[D-Tyr-Orn(FB)-Arg-Nal-Gly] (peptide)
IC50 [13]: 0.011 µM

Substance: cyc[Nal-Gly-D-Tyr-Orn-Arg] (peptide)
IC50 [13]: 0.009 µM

Now from value to substance:

IC50 [1]: 0.0065 µM
IC50 [2]: 0.004 µM
Substance: 125I-CPCR4

IC50 [9]: 4.6 ?
IC50 [4]: 0.02 ?
IC50 [5]: 8.8 ?
IC50 [10]: 3.5 ?
IC50 [11]: 0.01 ?
IC50 [12]: 0.01 ?
Substance: Iodo-CPCR4

IC50 [13]: 0.086 µM
Substance: cyc[D-Tyr-D-Orn(FB)-Arg-Nal-Gly] (peptide)

IC50 [13]: 0.07 µM
Substance: cyc[D-Tyr-Orn(Ahx)-Arg-Nal-Gly] (peptide)

IC50 [13]: 1 µM
Substance: cyc[Nal-Gly-D-Tyr-Arg-Orn] (peptide)
